A protein production outcome set (Wang et al. 2014)

Assay: label from the status in PepcDB records
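Note: failed if final PepcDB status was selected cloned or expressed and not failed if soluble or beyond.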

Sequence | protein production
MRLTKLAATIGCVTLSGLALVACSSDSTAGTDAVAVGGTFQFHSPDGKMEIFYDEADRQQLPDIGGDSLMEEGTQINLSDFENQVVILNAWGQWCAPCRSESDDLQIIHEELQAAGNGDTPGGTVLGINVRDYSRDIAQDFVTDNGLDYPSIYDPPFMTAASLGGVPASVIPTTIVLDKQHRPAAVFLREVTSKDVLDVALPLVDEA | not failed
MKVYLESFGCSASQASAEIMKASIGKLGHELLSPENAGQAEVYICNSCTVKYTTEQKILYKIRSMGEKGVQVIVSGCMPEVQLEDILHANPEAHILGVNAVSRLGDLLSTIEQRKKTGIPGGERLEIRTSEPQGFLNVPRERSNPNIHICQISQGCNFACSYCIVKHARGKLLSFPPEEIIEDIRSAVADGCREIWLTSQDDSQYGMDTGVKLPELLRAISEIPGDFKVRVGMMNPFSVLPILDDLVDAFDSDKIFKLLHLPIQSASHSVLKKMNRLHKMDSVDEIITKFRAHFEDLSLFTDIIVGFCDETDEDFEETIEWVKKYRPEKINISRYSPRPHTKAFSFRNLDSRISVKRSHQLHKVCEQIKIESKNEMIGWKGRVFVSKYTEIGDVLTRTDSYRPVVISGSDLRPGEYAEVKITGAKPGYFLGKLVSLEHHHHHH | not failed
MRQIRYAYAVAVDALYTFLADDGWAIASHIALSTLMALFPFLIVLTSLAGFVGSRELADSAAELLLDVWPAQVASTLSGEIHDVLTTTRGGVLTIGLVLALYFASNGVESLRVGLNRAYAVIEPRPWYLLRLESIGYTLVAAFTALAMGFLIVLGPLIVATARHYVPLLVHDNEPLLTFARYGIAITALTVALFLLHAYLPAGRRSFRQILPGIVFTITASLISGMTFGMYLARFANNYVSMYAGLASVIIALVFLYFIAAIFVYGGELNAAIIKSRLPEGTTLQEAQLRAPGAKPV | not failed
MFKVLAEAFASARLRLGAILFSPQSLAFLPAFCLGLYWYGGETALMITALVFPVFFLVARAKLAETVTTSRQDSVLGVMQPDGFQDIVAARFREARAGGLISTVFQIEIDDHTSLVERHGQRAAEVISTTSADRIAAVLRDRDAVTHLDTFKYAVCLEPVRQMDLELCIQLAGRIQAALEEPIALDATAVCITSSVGFCQQTKVLSRSGEAWLAAAGHALREAHLNGPGAIRAYSEKMQQKSEIRAELREEVAQALEKGQIKPWFQPQISTDTGLVTGFEALARWNHPKRGMVPPGAFLTAIEQAGMLEKLAEVMIFHAFTALKAWDSAGVCVPQVGVNFAGPELSNPKLVDKIIWELDRFDLAPERLAVEVLETVVANSPDDTITRNINGLSKLGCRIDLDDFGTGHASISSIRRFSVSRIKIDRSFVIKADRDPEQQRMISAILTMAERLEVETLAEGVESVGEHALLAQLGCDHVQGFGIGKPMPFDQTLDWIASHNAKLQATPQILPNKLRLEHHHHHH | not failed
MTLLNDIQVWTTACAYDHLIPGRGVGVLLDDGSQVALFRLDDGSVHAVGNVDPFSGAAVMSRGIVGDRGGRAMVQSPILKQAFALDDGSCLDDPRVSVPVYPARVTPEGRIQVARVAV | failed
MSFEEFTPLNEKSLVDYIKSTPALSSKIGADKSDDDLVIKEVGDGNLNFVFIVVGSSGSLVIKQALPYIRCIGESWPMTKERAYFEATTLRKHGNLSPDHVPEVYHFDRTMALIGMRYLEPPHIILRKGLIAGIEYPFLADHMSDYMAKTLFFTSLLYHDTTEHRRAVTEFCGNVELCRLTEQVVFSDPYRVSTFNRWTSPYLDDDAKAVREDSALKLEIAELKSMFCERAQALIHGDLHTGSVMVTQDSTQVIDPEFSFYGPMGFDIGAYLGNLILAFFAQDGHATQENDRKEYKQWILRTIEQTWNLFNKRFIALWDQNKDGPGEAYLADIYNNTEVLKFVQENYMRNLLHDSLGFGAAKMIRRIVGVAHVEDFESIEEDKRRAICERSALEFAKMLLKERRKFKSIGEVVSAIQQQS | failed
MALARANSPQEALLWALNDLEENSFKTLKFHLRDVTQFHLARGELESLSQVDLASKLISMYGAQEAVRVVSRSLLAMNLMELVDYLNQVCLNDYREIYREHV | not failed
STMEKSVLGGQDQLRVRVTELEDEVRNLRKINRDLFDFSTRFITRPAK | not failed
MKCHRVNELIELLHPAWQKEPDLNLVQFLQNLAQEAGFEGQLNELTDDILIYHLKMRDSDKEQVIPGLKKDYEEDFKTALLRARGVIKDLEHHHHHH | not failed
MESLTLQPIELISGEVNLPGSKSVSNRALLLAALASGTTRLTNLLDSDDIRHMLNALTKLGVNYRLSADKTTCEVEGLGQAFHTTQPLELFLGNAGTAMRPLAAALCLGQGDYVLTGEPRMKERPIGHLVDALRQAGAQIEYLEQENFPPLRIQGTGLQAGTVTIDGSISSQFLTAFLMSAPLAQGKVTIKIVGELVSKPYIDITLHIMEQFGVQVINHDYQEFVIPAGQSYVSPGQFLVEGDASSASYFLAAAAIKGGEVKVTGIGKNSIQGDIQFADALEKMGAQIEWGDDYVIARRGELNAVDLDFNHIPDAAMTIATTALFAKGTTAIRNVYNWRVKETDRLAAMATELRKVGATVEEGEDFIVITPPTKLIHAAIDTYDDHRMAMCFSLVALSDTPVTINDPKCTSKTFPDYFDKFAQLSR | not failed
MKKTLILGATPETNRYAYLAAERLKSHGHEFIPVGRKKGEVLGKTIINERPVIEGVDTVTLYINPQNQLSEYNYILSLKPKRVIFNPGTENEELEEILSENGIEPVIGCTLVMLSAGTF | not failed
MDRIDAMKVFVAAIDEGSLAGAARRLKRSPTAVSRALSFLEAHVGVELLHRTTRTLKLSEAGQRYAAACRRVLTDLEEADMLAGGERSAPRGMLTISSPPILGEEILRPILDDFLDLYPTVSVRLLLLDRFVNLVDEGVDIALRIGQLADSSLISTRLGGDVRRVVVASPRYLANHPRIEEPADLDKHQILAFTNFGLESWSFTPAKGSSVPRTIQFTPRCIVNSVRAAAASAAAGRGLTRLYSYHVAEYVRDGRLEIVLADAEHPPLPAHLIAPQGRMSVPKVRAFVDFAAPRLRSEFARMAAEAGTLT | failed
MQTQVLFEHPLNEKMRTWLRIEFLIQQLTVNLPIVDHAGALHFFRNVSELLDVFERGEVRTELLKELDRQQRKLQTWIGVPGVDQSRIEALIQQLKAAGSVLISAPRIGQFLREDRLIALVRQRLSIPGGCCSFDLPTLHIWLHLPQAQRDCQVETWIASLNPLTQALTMVLDLIRQSAPFRKQTSLNGFYQDNGGDADLLRLNLSLDSQLYPQISGHKSRFAIRFMPLDTENGQVPERLDFELACC | not failed
MSSAQVNGISKRLIVESPNVKLEDGVLESRFTYRKNHFEHRADGLHVTPKEHDYSFKTVLKPRKTGLLLVGLGGNNGSTAVGSIFANQYAMTWRTKEGHSQANYFGSVTQTATVHLGYDSATQNQIFVPFKDIVPILSPNDLIISGWDISDSNLYEAMGRAKVFEPELQEKLRPFMEPIVPLPSIYYPDFIASNQGDRANNVIPGDNKLEHLEHIRADIRKFKQEHELECVIVLWTANTERYTDVRQGLNATADEIMESIRVNEDEVSPSNIFAVASILEGAHYINGSPQNTLVPGLIELAERHKVFVGGDDFKSGQTKFKSAFVDFLVSSGMKPESIVSYNHLGNNDGKNLSEARQFRSKEISKSSVVDDMVKSNQILFPDAKNPDYCVVIKYVPYVADSKRAMDEYICSIFMGGKQTFVVHNTCEDSLLASPLIYDLAILTELASRVSYKVDDEYKPFHSVLSILSLLLKAPVVPPGTPISNAFMRQFSTLTKLVTALAGFPSDTDMQIEFFTQLPAAKSKSQ | not failed
MIEYRIFRFPMYPLLARFFSSHQQALGVLFALLSAIGFSAKAIFIKLAYVEPVDAVTLLALRMVFSVPFFVFAMLHGRAQATPMARHDWLAVLLLGLVGYYLASFLDFLGLQYISAGLERMILFLYPTMVVLISALVFRAAIGRRVWFALLLSYVGIGLVFVHDFHITSDGLFMGSSLVFASALAYAIYLIGAGHTIARIGSMRFTAYAMTVACLACIAQFLLTHPLDDLQQSTRVYGLSIGMALFSTVMPAFALAAAMRRIGSMQTSMIGALGPVATIYLAYVFLAEQLSLTQLAGSGLVLIGVMMISMRKME | failed
